Reference: patent publication US20120220538A1 (UNIVERSITY OF LOUISVILLE RESEARCH FOUNDATION, published 2012)

Legend:
human histone 4 = human histone 4 (human, UniProt P62805 2-103); experiment: in vitro histone binding assay, histone coated on plate, anti-lunasin polyclonal antibody + HRP secondary, A450
human histone 3.3 = human histone 3.3 (human, UniProt P84243 2-136); experiment: as above

B1: synthetic lunasin (peptide)
peptide: SKWQHQQDSCRKQLQGVNLTPCEKHIMEKIQGRGDDDDDDDDD
notes: Made by peptide synthesis; It is the 43-residue published form of lunasin; also called synthetic lunasin created by peptide synthesis
**Q.** Does B1 bind (human histone 4)?
**A.** binds

**Q.** Does B1 bind (human histone 3.3)?
**A.** binds

B2: soybean-derived lunasin (lunasin purified from soybean white flake) (peptide)
peptide: SKWQHQQDSCRKQLQGVNLTPCEKHIMEKIQGRGDDDDDDDDDN
notes: Purified from soybean white flake and released from the lunasin-containing complex with a reducing agent; also called purified lunasin; highly purified soybean-derived lunasin
**Q.** Does B2 bind (human histone 4)?
**A.** binds

**Q.** Does B2 bind (human histone 3.3)?
**A.** binds
